Our source for the Kd, koff and kon values is patent publication US20180282719A1 (published 2018).

Changes are numbered by the printed parent chain.

A word on the Kd: it is the constant that tells how readily two partners part at equilibrium. Usually koff stands for the rate constant with which the complex falls apart. As a reminder, the kon is the rate constant with which the complex forms.

The labels stand for the following.
T1: recombinant soluble human IL-6 receptor (SR344) (human, UniProt P08887 20-344, biotinylated (sites not given) where immobilized via streptavidin or used in phage ELISA)
T1 construct: also called soluble IL-6 receptor; membrane-type IL-6 receptor (when biotinylated and immobilized on the chip)
T1 sequence (looked up): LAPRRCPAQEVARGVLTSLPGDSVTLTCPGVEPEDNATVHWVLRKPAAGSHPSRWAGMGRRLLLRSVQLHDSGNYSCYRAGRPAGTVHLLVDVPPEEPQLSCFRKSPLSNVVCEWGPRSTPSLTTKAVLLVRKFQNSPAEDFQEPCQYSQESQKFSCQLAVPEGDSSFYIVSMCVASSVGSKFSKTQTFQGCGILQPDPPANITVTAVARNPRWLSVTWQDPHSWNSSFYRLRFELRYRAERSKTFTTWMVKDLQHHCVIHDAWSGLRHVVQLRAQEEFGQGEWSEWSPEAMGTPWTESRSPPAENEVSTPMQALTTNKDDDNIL

B1: humanized PM1 antibody (wild type, WT) (antibody, human IgG1, kappa, V domains shown)
VH: QVQLQESGPGLVRPSQTLSLTCTVSGYSITSDHAWSWVRQPPGRGLEWIGYISYSGITTYNPSLKSRVTMLRDTSKNQFSLRLSSVTAADTAVYYCARSLARTTAMDYWGQGSLVTVSS
VL: DIQMTQSPSSLSASVGDRVTITCRASQDISSYLNWYQQKPGKAPKLLIYYTSRLHSGVPSRFSGSGSGTDFTFTISSLQPEDIATYYCQQGNTLPYTFGQGTKVEIKR
notes: IgG1; also called WT-IgG1; wild type humanized anti-IL-6 receptor antibody
B2: H170/L82 (antibody, IgG1, V domains shown)
VH: QVQLQESGPGLVKPSETLSLTCAVSGHSISHHHAHSWVRQPPGEGLEWIGYISYSGITHYNPHLKGRVTISRDTSKNQFSLKLSSVTAADTAAYYCARVLARITAMDHWGEGTLVTVSS
VL: DIQMTQSPSSLSASVGDSVTITCQASQDISSHLNWYQQKPGKAPELLIYYGSHLHSGVPSRFSGSGSGTDFTFTISSLEAEDAATYYCGQGNRLPYTFGQGTKVEIE
notes: expressed and purified as IgG (IgG1); also called H170/L82-IgG1
B3: Fv4-IgG1 (antibody)
heavy: not shown
light: DIQMTQSPSSLSASVGDSVTITCQASTDISSHLNWYQQKPGKAPELLIYYGSHLLSGVPSRFSGSGSGTDFTFTISSLEAEDAATYYCGQGNRLPYTFGQGTKVEIERTVAAPSVFIFPPSDEQLKSGTASVVCLLNNFYPREAKVQWKVDNALQSGNSQESVTEQDSKDSTYSLSSTLTLSKADYEKHKVYACEVTHQGLSSPVTKSFNRGEC
notes: VH3-IgG1 / VL3-CK
B4: H3pI/L73 (antibody, IgG1, V domains shown)
VH: B2 VH with H32D, H59N, H63S, V99S, I103T, H108Y
VL: B2 VL with D28H
notes: tested as IgG1; also called H3pI/L73-IgG1; H3pl/L73

One experiment deals with T1, recombinant soluble human IL-6 receptor …. Kind of experiment: SPR Biacore T100, antibody on protein A/G chip, SR344 analyte, pH 5.8, 37 C. The protocol: Kinetic analysis of antigen-antibody reactions at pH 7.4 and pH 5.8 was carried out using a Biacore T100™ surface plasmon resonance system (GE Healthcare) for the four types of antibodies prepared: WT-IgG1, H54/L28-IgG1, H170/L82-IgG1, and Fv4-IgG1 (buffer: 10 mM MES (pH 7.4 or pH 5.8), 150 mM NaCl, 0.05% Surfactant P20 (polyoxyethelene sorbitan monolaurate)). The antibodies were bound to a sensor chip on which recomb-protein A/G (Pierce) was immobilized by amine coupling, and SR344 adjusted to an appropriate concentration was injected therein as an analyte. The association with and dissociation from SR344 of each type of antibody were observed on a real-time basis. All the measurements were carried out at 37° C. Association rate constants kₐ (1/Ms) and dissociation rate constants kd (1/s) were calculated using Biacore T100™ Evaluation Software (GE Healthcare), and dissociation constants KD (M) were calculated based on those values (Table 17).
In general terms: In SPR one partner is held on a chip, and binding of the other changes the refractive index at the surface.
Take B1: the Kd was 3.1 nM, the koff came to 0.0027 s⁻¹ and the kon turned out to be 890000 M⁻¹ s⁻¹.

Regarding B2, the Kd stood at 100 nM, the koff was determined as 0.013 s⁻¹ and the kon is 120000 M⁻¹ s⁻¹.

Turning to B3, the Kd turned out to be 26 nM, the koff was determined as 0.037 s⁻¹ and the kon was found to be 1.4e+06 M⁻¹ s⁻¹.

Another experiment has the same target. Kind of experiment: SPR Biacore T100, antibody captured by anti-IgG gamma chain F(ab)2, SR344 analyte, pH 7.4, 37 C. The protocol:
Kinetic analyses of antigen-antibody reactions at pH 7.4 were carried out on the four types of antibodies, i.e., the humanized PM1 antibody (wild type: WT), and […], H3pI/L73-IgG1, Fv2-IgG1, and Fv4-IgG1 constructed in Examples 2 and 10, by using a Biacore T100™ surface plasmon resonance system (GE Healthcare) (buffer: 10 mM MES (pH 7.4), 150 mM NaCl, 0.05% TWEEN® 20 (polyoxyethelene sorbitan monolaurate)). Each antibody was bound on a sensor chip on which an anti-IgG γ chain specific F(ab)₂ (Pierce) was immobilized by amine coupling, and then, SR344 adjusted to a concentration of 9.8 to 40 nM was injected thereto as an analyte. The association to and dissociation from SR344 were observed on a real-time basis for the pH-dependent-binding clones. All the measurements were carried out at 37° C. Association rate constants kₐ (1/Ms) and dissociation rate constants kd (1/s) were calculated using Biacore T100™ Evaluation Software (GE Healthcare), and dissociation constants KD (M) were calculated on the basis of those values (Table 7).
The association to and dissociation from SR344 were observed on a real-time basis using the same method as Example 10 for the eleven types of antibodies, humanized PM1 antibody (wild type: WT) and H3pI/L73-IgG1, Fv1-M71, Fv1-M73, Fv2-IgG1, Fv3-M71, Fv3-M73, Fv4-IgG1, Fv4-IgG2, Fv4-M58, and Fv4-M73, constructed as described above. The association rate constants kₐ (1/Ms) and dissociation rate constants kd. (1/s) were calculated by analysis in the same manner, and the dissociation constants KD (M) were calculated on the basis of those values (Table 11).
Consider B1, for which the Kd amounted to 2.7 nM, the koff turned out to be 0.0011 s⁻¹ and the kon came to 400000 M⁻¹ s⁻¹.

For the molecule B4, the Kd came to 1.4 nM, the koff came out at 0.00059 s⁻¹ and the kon came to 410000 M⁻¹ s⁻¹.

B3: the Kd was found to be 1.4 nM, the koff was 0.001 s⁻¹ and the kon came out at 720000 M⁻¹ s⁻¹.

For the next experiment the target is unchanged. Kind of experiment: SPR Biacore T100, biotinylated SR344 on streptavidin chip (model of membrane IL-6 receptor), antibody 0.5 ug/mL as analyte, bound at pH 7.4, dissociation at pH 5.8, 37 C. The protocol:
(§1) The binding to membrane IL-6 receptor was evaluated by evaluating the binding to the IL-6 receptor immobilized onto a sensor chip. SR344 was biotinylated according to a method known to persons skilled in the art, and the biotinylated SR344 was immobilized on the sensor chip via streptavidin by utilizing the affinity between streptavidin and biotin. All the measurements were carried out at 37° C., and the mobile phase buffer contained 10 mM MES (pH 5.8), 150 mM NaCl and 0.05% TWEEN® 20 (polyoxyethelene sorbitan monolaurate). The pH-dependent binding clones were injected therein under the condition of pH 7.4 and allowed to bind to SR344 (injection sample buffer: 10 mM MES (pH 7.4), 150 mM NaCl, 0.05% TWEEN® 20 (polyoxyethelene sorbitan monolaurate)), and the pH-dependent dissociation of each clone at the mobile phase pH of 5.8 was observed (FIG. 10).
(§2) The dissociation rate […]) at pH 5.8 was calculated using Biacore T100™ Evaluation Software (GE Healthcare) by fitting only the dissociation phase at pH 5.8, where 0.5 μg/mL of the sample was bound in 10 mM MES (pH 7.4), 150 mM NaCl, and 0.05% TWEEN® 20 (polyoxyethelene sorbitan monolaurate), and dissociated in 10 mM MES (pH 5.8), 150 mM NaCl, and 0.05% TWEEN® 20 (polyoxyethelene sorbitan monolaurate). Similarly, the dissociation rate (kd(1/s)) at pH 7.4 was calculated using Biacore T100™ Evaluation Software (GE Healthcare) by fitting only the dissociation phase at pH 7.4, where 0.5 μg/mL of the sample was bound in 10 mM MES (pH 7.4), 150 mM NaCl, and 0.05% TWEEN® 20 (polyoxyethelene sorbitan monolaurate), and dissociated in 10 mM MES (pH 7.4), 150 mM NaCl, and 0.05% TWEEN® 20 (polyoxyethelene sorbitan monolaurate).
On to B1, for which the koff came out at 0.000715 s⁻¹.

As for B4, the koff was 0.00378 s⁻¹.

For B2, the koff was 0.00144 s⁻¹.

The next experiment shares this target. The experiment in a line: SPR Biacore T100, biotinylated SR344 on streptavidin chip (model of membrane IL-6 receptor), antibody 0.5 ug/mL as analyte, bound at pH 7.4, dissociation at pH 7.4, 37 C. The protocol: as §1, §2
Take B1: the koff was 0.000484 s⁻¹.

For the molecule B4, the koff stood at 0.000344 s⁻¹.

Consider B2, for which the off-rate constant (koff) is 0.00077 s⁻¹.
